Measurements taken from paper doi:10.1101/2025.11.29.689641.

Target: SoP450 from Shimazuella soli (CPR-containing self-sufficient cytochrome P450, homologue of P450BM3) (Shimazuella soli)
Experiment: SEC

- stoichiometry N: 2
Substance: SoP450 from Shimazuella soli (CPR-containing self-sufficient cytochrome P450, homologue of P450BM3) (enzyme)
